Paper PMC10995880
Values joined by “and” are separate entries in the source; they are usually repeats but may differ in a detail not shown here. Equal entries are not always repeated. Where two headings read alike, the source gives them in different places. Blank lines part the entries; values can stand above or below the substance they belong to.

Experiments:
[1] = molecular target: His6-PEX19-αd4A (F125A, L129A, L133A, L136A), non-farnesylated (human) (UniProt P40855); assay: cross-linking; UV crosslinking from Bpa at L264 of PEX26; purified PEX19·PEX26^Bpa complex chased with SGTA instead of CaM
[2] = molecular target: His6-PEX19-WT (1–299 aa), non-farnesylated (human) (UniProt P40855); assay: as above
PEX19-αd4A proteins = assay: cross-linking; UV crosslinking from Bpa at L264 of PEX26; purified PEX19·PEX26^Bpa complex (400 nM PEX19) chased with 20 μM CaM at room temperature in 20 mM K-HEPES pH 7.5, 150 mM CH3COOK, 1 mM Ca acetate, 1 mM DTT, 10% glycerol; frozen aliquots irradiated; anti-Strep blot; dissociation (%) = PEX26xCaM/(PEX26xPEX19 + PEX26xCaM)
PEX19-WT proteins = assay: as above
[3] = molecular target: farnesylated PEX19-WT (PEX19-WT^F) (human) (UniProt P40855); assay: as above
[4] = molecular target: His6-PEX19-αd4A (F125A, L129A, L133A, L136A), non-farnesylated (human) (UniProt P40855); assay: as above
[5] = molecular target: His6-PEX19-WT (1–299 aa), non-farnesylated (human) (UniProt P40855); assay: as above
[6] = molecular target: 2×Strep-SUMO-PEX26 (237-305aa) (UniProt Q7Z412)
Chain of 2×Strep-SUMO-PEX26 (237-305aa) (Q7Z412 237-305): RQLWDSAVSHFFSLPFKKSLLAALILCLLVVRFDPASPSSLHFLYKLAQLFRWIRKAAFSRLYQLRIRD

[7] = molecular target: PEX3 cytosolic domain (Homo sapiens) (UniProt P56589); settings: cited from earlier work
Chain of PEX3 cytosolic domain (Homo sapiens) (P56589 41-373): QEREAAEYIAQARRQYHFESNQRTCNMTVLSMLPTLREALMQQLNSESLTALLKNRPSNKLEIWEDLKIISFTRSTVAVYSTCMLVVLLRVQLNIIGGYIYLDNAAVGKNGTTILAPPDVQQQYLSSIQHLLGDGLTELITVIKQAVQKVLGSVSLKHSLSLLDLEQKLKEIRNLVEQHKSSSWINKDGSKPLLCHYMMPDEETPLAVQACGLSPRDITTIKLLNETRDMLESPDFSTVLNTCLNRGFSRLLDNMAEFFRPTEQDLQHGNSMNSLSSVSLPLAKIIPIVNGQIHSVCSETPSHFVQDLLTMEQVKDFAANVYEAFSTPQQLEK

[8] = molecular target: PEX3 cytosolic domain (Homo sapiens) (UniProt P56589); settings: cited from earlier work; remark: listed apart in the source

Chain of His6-PEX19-WT (1–299 aa), non-farnesylated (P40855 whole entry, the tested form may be a part): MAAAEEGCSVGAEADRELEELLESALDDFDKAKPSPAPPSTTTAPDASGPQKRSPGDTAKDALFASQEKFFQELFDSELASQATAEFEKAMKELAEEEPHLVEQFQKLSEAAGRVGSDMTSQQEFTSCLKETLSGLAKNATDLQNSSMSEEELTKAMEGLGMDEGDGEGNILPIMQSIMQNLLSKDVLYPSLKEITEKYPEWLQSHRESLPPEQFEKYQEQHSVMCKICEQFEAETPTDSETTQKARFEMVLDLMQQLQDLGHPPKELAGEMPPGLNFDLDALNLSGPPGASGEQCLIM
Chain of farnesylated PEX19-WT (PEX19-WT^F) (P40855 whole entry): as the sequence (P40855 whole entry, the tested form may be a part) above
Chain of PEX19 (P40855 2-296): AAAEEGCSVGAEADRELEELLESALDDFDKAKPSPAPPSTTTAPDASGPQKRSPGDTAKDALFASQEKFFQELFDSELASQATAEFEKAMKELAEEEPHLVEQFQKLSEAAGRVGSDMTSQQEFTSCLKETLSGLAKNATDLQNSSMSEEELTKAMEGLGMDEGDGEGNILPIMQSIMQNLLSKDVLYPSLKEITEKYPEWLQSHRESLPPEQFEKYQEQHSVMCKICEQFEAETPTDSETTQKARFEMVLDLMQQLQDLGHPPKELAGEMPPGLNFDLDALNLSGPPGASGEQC
Chain of PEX19 αa peptide (P40855 14-33): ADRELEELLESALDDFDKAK

- PEX26 dissociation (%) within 10 min of SGTA chase [1]: > 40%
- PEX26 dissociation (%) within 20 min of SGTA chase [1]: 50%
- PEX26 dissociation (%) within 80 min of SGTA chase [2]: < 4%
- PEX26 dissociation (%) within 5 min of CaM chase (PEX19-αd4A proteins): 60% and 80%
- PEX26 dissociation (%) within 4 h of CaM chase (PEX19-WT proteins): 20% and 30%
- time to release ∼20% of PEX26 to CaM [3]: 240 min
- PEX26 dissociation (%) within 10 min of CaM chase [4]: 70%
- PEX26 dissociation (%) within 10 min of CaM chase [5]: 16%
- time to release ∼20% of PEX26 to CaM [5]: 30 min and 40 min
Substance: 2×Strep-SUMO-PEX26^Bpa (L264^Bpa) (from UniProt Q7Z412 237-305) (domain or fragment)

- turbidity assay (OD360): concentration of PEX19 for half-maximal solubilization of 1.5 μM PEX26 (K soluble) [6]: 1.71 µM
Substance: His6-PEX19-WT (1–299 aa), non-farnesylated (from UniProt P40855 1-299) (natural protein)

Substance: PEX19 (from UniProt P40855)
- Kd [7]: 3.4 nM

Substance: PEX19 αa peptide (from UniProt P40855)
- Kd [8]: 40.8 nM

- turbidity assay (OD360): concentration of PEX19 for half-maximal solubilization of 1.5 μM PEX26 (K soluble) [6]: 0.72 µM
Substance: farnesylated PEX19-WT (PEX19-WT^F) (from UniProt P40855 1-299) (natural protein)
